# Literature values in publication PMC9506339.
# Like-named read-outs stand apart in the source and are kept apart here.
# What was measured:
# [1] = molecular target: vitamin D-binding protein (UniProt P02774)
# [2] = molecular target: vitamin D-binding protein (UniProt P02774); remark: listed apart in the source
# Chain of UniProt P02774 (P02774 17-474): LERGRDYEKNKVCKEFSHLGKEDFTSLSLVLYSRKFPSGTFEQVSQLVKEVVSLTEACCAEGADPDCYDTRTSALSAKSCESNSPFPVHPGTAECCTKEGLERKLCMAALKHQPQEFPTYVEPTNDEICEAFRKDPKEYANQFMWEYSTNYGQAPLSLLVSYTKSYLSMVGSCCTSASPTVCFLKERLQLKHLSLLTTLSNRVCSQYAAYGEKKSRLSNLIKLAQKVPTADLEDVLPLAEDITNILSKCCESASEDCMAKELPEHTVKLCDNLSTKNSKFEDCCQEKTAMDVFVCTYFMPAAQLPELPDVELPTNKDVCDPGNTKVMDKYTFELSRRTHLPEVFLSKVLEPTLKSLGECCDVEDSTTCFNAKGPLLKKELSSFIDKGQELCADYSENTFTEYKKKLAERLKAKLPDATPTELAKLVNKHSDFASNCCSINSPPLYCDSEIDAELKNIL
Kd [1],Kd [2],Substance
0.11 µM,,cubilin (from UniProt O60494)
,0.12 µM,megalin (from UniProt P98164)
